This assay has as its target His-tagged recombinant Ebola virus glycoprotein (rGP) expressed in insect cells (Ebola virus (EBOV)) (UniProt Q05320). Nature of the assay: ELISA. Background: In an ELISA, binding on a coated surface is turned into a signal by an enzyme label.

Turning to Fab-KZ52, the GP binding affinity (absorbance normalized by the negative control) was 16.6; the absorbance signal ratio between positive binding samples and blanks came to 10.2; the ratio of GP-binding affinity to HA-RBD affinity (GP/HA) turned out to be 3.91.
On to scFv-13C6, for which the GP binding affinity (absorbance normalized by the negative control) (normalized units) was 11.1; the absorbance signal ratio between positive binding samples and blanks was 19.1; the ratio of GP-binding affinity to HA-RBD affinity (GP/HA) came to 5.
scFv-13F6: the GP binding affinity (absorbance normalized by the negative control) (normalized units) came to 9.65; the absorbance signal ratio between positive binding samples and blanks came out at 13.9; the ratio of GP-binding affinity to HA-RBD affinity (GP/HA) stood at 4.48.

These data come from article PMC4619498.
